Data reported in patent US9260500B2, “Peptide and use thereof” (Takeda Pharmaceutical Company Limited, priority 2009, dated 2016).
Non-standard residues stand in square brackets, D forms with d. *: point of attachment. Tyr(3-F) = N[C@@H](Cc1ccc(O)c(F)c1)C(=O)O; Tyr(2-F) = N[C@@H](Cc1ccc(O)cc1F)C(=O)O; Ala(cPr) = N[C@@H](CC1CC1)C(=O)O; tBuAla = CC(C)(C)C[C@H](N)C(=O)O; 3Pal = N[C@@H](Cc1cccnc1)C(=O)O; Cha = N[C@@H](CC1CCCCC1)C(=O)O; Gly(cPr) = N[C@H](C(=O)O)C1CC1; Isobutyryl = CC(C)C(=O)*; Abu = CC[C@H](N)C(=O)O; Aib = CC(C)(N)C(=O)O

Key:
human Y2 receptor [1] = target: T1, human Y2 receptor (Homo sapiens, UniProt P49146); assay: Human Y2 Receptor G Protein Binding Assay (GBA), [35S]GTPγS; format: biochemical; settings: EC50 of test compound/EC50 of PYY(3-36) (PYY3-36 taken as 1), hY2R/CHO membrane fraction
T1 construct: expressed in transfected cells; membrane fraction
T1 sequence (P49146 1-381): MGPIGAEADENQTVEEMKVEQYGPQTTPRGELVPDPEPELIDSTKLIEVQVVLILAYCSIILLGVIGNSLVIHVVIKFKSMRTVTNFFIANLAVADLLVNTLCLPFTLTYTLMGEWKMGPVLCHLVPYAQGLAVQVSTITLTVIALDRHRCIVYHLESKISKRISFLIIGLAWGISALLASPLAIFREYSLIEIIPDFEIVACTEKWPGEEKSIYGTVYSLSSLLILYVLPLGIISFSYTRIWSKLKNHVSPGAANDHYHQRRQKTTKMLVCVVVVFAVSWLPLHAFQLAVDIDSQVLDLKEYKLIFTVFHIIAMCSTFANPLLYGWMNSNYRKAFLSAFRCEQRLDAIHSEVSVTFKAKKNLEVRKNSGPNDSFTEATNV
Method in brief: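 Agonism measured as [35S]GTPγS binding, read by GF/C filtration and scintillation counting after 120 min at room temperature, using human Y2 membranes at 1 μg protein/mL in pH 7.4 Tris/MgCl2/NaCl/GDP buffer. Compound serially diluted 100 μM–1 nM; EC50 normalized to PYY(3-36) (ratio = compound/PYY).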

human Y2 receptor [2] = target: T1, human Y2 receptor; assay: Receptor Binding Assay (RBA) for Human Y2, [125I]-PYY displacement on hY2R/CHO membrane fraction; settings: IC50 of test compound/IC50 of PYY(3-36) (PYY(3-36) taken as 1)
Method in brief: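 Read-out is [125I]-PYY displacement from membranes of CHO/dhfr− cells stably transfected with human Y2R. Membranes were obtained by disrupting cells in a buffer of 10 mM NaHCO3, 5 mM EDTA and protease inhibitors.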

Isobutanoyl-[Abu26, Cha27,28,36, Abu30, Aib31]-PYY(25-36) (Isobutyryl-R[Abu][Cha][Cha]N[Abu][Aib]TRQR[Cha]-NH2; SMILES CC[C@H](NC(=O)[C@H](CCCNC(=N)N)NC(=O)C(C)C)C(=O)N[C@@H](CC1CCCCC1)C(=O)N[C@@H](CC1CCCCC1)C(=O)N[C@@H](CC(N)=O)C(=O)N[C@@H](CC)C(=O)NC(C)(C)C(=O)N[C@H](C(=O)N[C@@H](CCCNC(=N)N)C(=O)N[C@@H](CCC(N)=O)C(=O)N[C@@H](CCCNC(=N)N)C(=O)N[C@@H](CC1CCCCC1)C(N)=O)[C@@H](C)O) [compound No. 91]
GBA EC50 Ratio (human Y2 receptor [1]): 21
RBA IC50 Ratio (human Y2 receptor [2]): 20

Isobutanoyl-[Abu26, Cha27,28,36, Ala(cPr)30, Aib31]-PYY(25-36) (Isobutyryl-R[Abu][Cha][Cha]N[Ala(cPr)][Aib]TRQR[Cha]-NH2; SMILES CC[C@H](NC(=O)[C@H](CCCNC(=N)N)NC(=O)C(C)C)C(=O)N[C@@H](CC1CCCCC1)C(=O)N[C@@H](CC1CCCCC1)C(=O)N[C@@H](CC(N)=O)C(=O)N[C@@H](CC1CC1)C(=O)NC(C)(C)C(=O)N[C@H](C(=O)N[C@@H](CCCNC(=N)N)C(=O)N[C@@H](CCC(N)=O)C(=O)N[C@@H](CCCNC(=N)N)C(=O)N[C@@H](CC1CCCCC1)C(N)=O)[C@@H](C)O) [compound No. 80]
GBA EC50 Ratio (human Y2 receptor [1]): 12
RBA IC50 Ratio (human Y2 receptor [2]): 17

Isobutanoyl-[Abu26, Cha27,28,36, Gln30, Aib31]-PYY(25-36) (Isobutyryl-R[Abu][Cha][Cha]NQ[Aib]TRQR[Cha]-NH2; SMILES CC[C@H](NC(=O)[C@H](CCCNC(=N)N)NC(=O)C(C)C)C(=O)N[C@@H](CC1CCCCC1)C(=O)N[C@@H](CC1CCCCC1)C(=O)N[C@@H](CC(N)=O)C(=O)N[C@@H](CCC(N)=O)C(=O)NC(C)(C)C(=O)N[C@H](C(=O)N[C@@H](CCCNC(=N)N)C(=O)N[C@@H](CCC(N)=O)C(=O)N[C@@H](CCCNC(=N)N)C(=O)N[C@@H](CC1CCCCC1)C(N)=O)[C@@H](C)O) [compound No. 90]
GBA EC50 Ratio (human Y2 receptor [1]): 22
RBA IC50 Ratio (human Y2 receptor [2]): 19

Isobutanoyl-[Abu26, Cha27,28,36, Gly(cPr)31]-PYY(25-36) (Isobutyryl-R[Abu][Cha][Cha]NL[Gly(cPr)]TRQR[Cha]-NH2; SMILES CC[C@H](NC(=O)[C@H](CCCNC(=N)N)NC(=O)C(C)C)C(=O)N[C@@H](CC1CCCCC1)C(=O)N[C@@H](CC1CCCCC1)C(=O)N[C@@H](CC(N)=O)C(=O)N[C@@H](CC(C)C)C(=O)N[C@H](C(=O)N[C@H](C(=O)N[C@@H](CCCNC(=N)N)C(=O)N[C@@H](CCC(N)=O)C(=O)N[C@@H](CCCNC(=N)N)C(=O)N[C@@H](CC1CCCCC1)C(N)=O)[C@@H](C)O)C1CC1) [compound No. 88]
GBA EC50 Ratio (human Y2 receptor [1]): 16
RBA IC50 Ratio (human Y2 receptor [2]): 25

Isobutanoyl-[Abu26, Cha27,28,36, His30, Aib31]-PYY(25-36) (Isobutyryl-R[Abu][Cha][Cha]NH[Aib]TRQR[Cha]-NH2; SMILES CC[C@H](NC(=O)[C@H](CCCNC(=N)N)NC(=O)C(C)C)C(=O)N[C@@H](CC1CCCCC1)C(=O)N[C@@H](CC1CCCCC1)C(=O)N[C@@H](CC(N)=O)C(=O)N[C@@H](Cc1c[nH]cn1)C(=O)NC(C)(C)C(=O)N[C@H](C(=O)N[C@@H](CCCNC(=N)N)C(=O)N[C@@H](CCC(N)=O)C(=O)N[C@@H](CCCNC(=N)N)C(=O)N[C@@H](CC1CCCCC1)C(N)=O)[C@@H](C)O) [compound No. 92]
GBA EC50 Ratio (human Y2 receptor [1]): 20
RBA IC50 Ratio (human Y2 receptor [2]): 22

Isobutanoyl-[Abu26, Cha27,28,36, Leu(Me)30, Aib31]-PYY(25-36) (Isobutyryl-R[Abu][Cha][Cha]N[tBuAla][Aib]TRQR[Cha]-NH2; SMILES CC[C@H](NC(=O)[C@H](CCCNC(=N)N)NC(=O)C(C)C)C(=O)N[C@@H](CC1CCCCC1)C(=O)N[C@@H](CC1CCCCC1)C(=O)N[C@@H](CC(N)=O)C(=O)N[C@@H](CC(C)(C)C)C(=O)NC(C)(C)C(=O)N[C@H](C(=O)N[C@@H](CCCNC(=N)N)C(=O)N[C@@H](CCC(N)=O)C(=O)N[C@@H](CCCNC(=N)N)C(=O)N[C@@H](CC1CCCCC1)C(N)=O)[C@@H](C)O) [compound No. 81]
GBA EC50 Ratio (human Y2 receptor [1]): 26
RBA IC50 Ratio (human Y2 receptor [2]): 51

Isobutanoyl-[Abu26, Cha27,28,36, Pya(3)31]-PYY(25-36) (Isobutyryl-R[Abu][Cha][Cha]NL[3Pal]TRQR[Cha]-NH2; SMILES CC[C@H](NC(=O)[C@H](CCCNC(=N)N)NC(=O)C(C)C)C(=O)N[C@@H](CC1CCCCC1)C(=O)N[C@@H](CC1CCCCC1)C(=O)N[C@@H](CC(N)=O)C(=O)N[C@@H](CC(C)C)C(=O)N[C@@H](Cc1cccnc1)C(=O)N[C@H](C(=O)N[C@@H](CCCNC(=N)N)C(=O)N[C@@H](CCC(N)=O)C(=O)N[C@@H](CCCNC(=N)N)C(=O)N[C@@H](CC1CCCCC1)C(N)=O)[C@@H](C)O) [compound No. 82]
GBA EC50 Ratio (human Y2 receptor [1]): 19
RBA IC50 Ratio (human Y2 receptor [2]): 25

Isobutanoyl-[Abu26, Cha27,28,36, Ser30, Aib31]-PYY(25-36) (Isobutyryl-R[Abu][Cha][Cha]NS[Aib]TRQR[Cha]-NH2; SMILES CC[C@H](NC(=O)[C@H](CCCNC(=N)N)NC(=O)C(C)C)C(=O)N[C@@H](CC1CCCCC1)C(=O)N[C@@H](CC1CCCCC1)C(=O)N[C@@H](CC(N)=O)C(=O)N[C@@H](CO)C(=O)NC(C)(C)C(=O)N[C@H](C(=O)N[C@@H](CCCNC(=N)N)C(=O)N[C@@H](CCC(N)=O)C(=O)N[C@@H](CCCNC(=N)N)C(=O)N[C@@H](CC1CCCCC1)C(N)=O)[C@@H](C)O) [compound No. 89]
GBA EC50 Ratio (human Y2 receptor [1]): 28
RBA IC50 Ratio (human Y2 receptor [2]): 26

Isobutanoyl-[Abu26, Cha27,28, Aib31, Tyr(2F)36]-PYY(25-36) (Isobutyryl-R[Abu][Cha][Cha]NL[Aib]TRQR[Tyr(2-F)]-NH2; SMILES CC[C@H](NC(=O)[C@H](CCCNC(=N)N)NC(=O)C(C)C)C(=O)N[C@@H](CC1CCCCC1)C(=O)N[C@@H](CC1CCCCC1)C(=O)N[C@@H](CC(N)=O)C(=O)N[C@@H](CC(C)C)C(=O)NC(C)(C)C(=O)N[C@H](C(=O)N[C@@H](CCCNC(=N)N)C(=O)N[C@@H](CCC(N)=O)C(=O)N[C@@H](CCCNC(=N)N)C(=O)N[C@@H](Cc1ccc(O)cc1F)C(N)=O)[C@@H](C)O) [compound No. 86]
GBA EC50 Ratio (human Y2 receptor [1]): 11
RBA IC50 Ratio (human Y2 receptor [2]): 19

Isobutanoyl-[Abu26, Cha27,28, Aib31, Tyr(3F)36]-PYY(25-36) (Isobutyryl-R[Abu][Cha][Cha]NL[Aib]TRQR[Tyr(3-F)]-NH2; SMILES CC[C@H](NC(=O)[C@H](CCCNC(=N)N)NC(=O)C(C)C)C(=O)N[C@@H](CC1CCCCC1)C(=O)N[C@@H](CC1CCCCC1)C(=O)N[C@@H](CC(N)=O)C(=O)N[C@@H](CC(C)C)C(=O)NC(C)(C)C(=O)N[C@H](C(=O)N[C@@H](CCCNC(=N)N)C(=O)N[C@@H](CCC(N)=O)C(=O)N[C@@H](CCCNC(=N)N)C(=O)N[C@@H](Cc1ccc(O)c(F)c1)C(N)=O)[C@@H](C)O) [compound No. 87]
GBA EC50 Ratio (human Y2 receptor [1]): 20
RBA IC50 Ratio (human Y2 receptor [2]): 26

Isobutanoyl-[Abu26, Cha27,36, Gln28, Aib31]-PYY(25-36) (Isobutyryl-R[Abu][Cha]QNL[Aib]TRQR[Cha]-NH2; SMILES CC[C@H](NC(=O)[C@H](CCCNC(=N)N)NC(=O)C(C)C)C(=O)N[C@@H](CC1CCCCC1)C(=O)N[C@@H](CCC(N)=O)C(=O)N[C@@H](CC(N)=O)C(=O)N[C@@H](CC(C)C)C(=O)NC(C)(C)C(=O)N[C@H](C(=O)N[C@@H](CCCNC(=N)N)C(=O)N[C@@H](CCC(N)=O)C(=O)N[C@@H](CCCNC(=N)N)C(=O)N[C@@H](CC1CCCCC1)C(N)=O)[C@@H](C)O) [compound No. 100]
GBA EC50 Ratio (human Y2 receptor [1]): 30
RBA IC50 Ratio (human Y2 receptor [2]): 45

Isobutanoyl-[Abu26, Cha27,36, Gly(cPr)28, Aib31]-PYY(25-36) (Isobutyryl-R[Abu][Cha][Gly(cPr)]NL[Aib]TRQR[Cha]-NH2; SMILES CC[C@H](NC(=O)[C@H](CCCNC(=N)N)NC(=O)C(C)C)C(=O)N[C@@H](CC1CCCCC1)C(=O)N[C@H](C(=O)N[C@@H](CC(N)=O)C(=O)N[C@@H](CC(C)C)C(=O)NC(C)(C)C(=O)N[C@H](C(=O)N[C@@H](CCCNC(=N)N)C(=O)N[C@@H](CCC(N)=O)C(=O)N[C@@H](CCCNC(=N)N)C(=O)N[C@@H](CC1CCCCC1)C(N)=O)[C@@H](C)O)C1CC1) [compound No. 93]
GBA EC50 Ratio (human Y2 receptor [1]): 41
RBA IC50 Ratio (human Y2 receptor [2]): 52

Isobutanoyl-[Abu26, Cha27,36, His28, Aib31]-PYY(25-36) (Isobutyryl-R[Abu][Cha]HNL[Aib]TRQR[Cha]-NH2; SMILES CC[C@H](NC(=O)[C@H](CCCNC(=N)N)NC(=O)C(C)C)C(=O)N[C@@H](CC1CCCCC1)C(=O)N[C@@H](Cc1c[nH]cn1)C(=O)N[C@@H](CC(N)=O)C(=O)N[C@@H](CC(C)C)C(=O)NC(C)(C)C(=O)N[C@H](C(=O)N[C@@H](CCCNC(=N)N)C(=O)N[C@@H](CCC(N)=O)C(=O)N[C@@H](CCCNC(=N)N)C(=O)N[C@@H](CC1CCCCC1)C(N)=O)[C@@H](C)O) [compound No. 101]
GBA EC50 Ratio (human Y2 receptor [1]): 13
RBA IC50 Ratio (human Y2 receptor [2]): 19
